This data set in a line: yeast display, Sf9 membrane polyspecificity reagent, FACS + sequencing; frameworks hold sequencing errors. Put shortly:
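A synthetic nanobody library was expressed on Saccharomyces cerevisiae BJ5465 by galactose induction for 36–48 hours. The library was stained for 1 hour at 4 °C with 10% biotinylated, detergent-solubilized Sf9 membrane reagent and enriched with streptavidin microbeads before FACS. Low and high (top ~1%) gates were set on anti-HA fluorescence for expression and streptavidin fluorescence for reagent binding, and each polyreactivity label reflects the gate of origin.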
For “QVQLVESGGGLVQAGGSLRLSCAASGRTFVSYVMGWYRQAPGKERAFVAAISRSGGNTYYADSVKGRFTMSRDNAKNTVYLQMNSLKPEDTAVDYCAAKLGPLVYDHDYWGQGTQVTVSS”, the “polyreactivity (PSR sort gate)” value was “high polyreactivity”.
In the case of “QVQLVESGGGLVQAGGSLRLSCAASGRTFVTNAMGWYRQAPGKERELVATINWSGGRTHYADSVKGRFTISRDNAKNTVYLQMNSLKPEDTEVYYCAKASSRRYWTIRDGDYWGQGTQVTVSS” it was “low polyreactivity”.
For the sequence “QVQLVESGGGLVQAGGSLRLSCAASGRTFVVKAMGWYRQAPGKERELVAAITRRGGITYYADSVKGRITISRDNAKNTVYLQMNSLKPEDTAVSYCAADRSYYPDTRTTSGYNYWGQGTQVTVSS”, the “polyreactivity (PSR sort gate)” value is listed as “low polyreactivity”.
For the sequence “QVQLVESGGGLVQAGGSLRLSCAASGRTFVVNYMGWYRQAPGKERELVATINVSGGSTSYADSVKGRFTISRDNAKNTVYLQMNSLKPEDTAVYYCNVDTYVEYPHDYWGQGTQVTVSS”, the “polyreactivity (PSR sort gate)” value is given as “low polyreactivity”.
As for “QVQLVESGGGLVQAGGSLRLSCAASGRTFVVYAMGWYGQAPGKERELVAGITTRVGSTYYADSVKGRFTISRDNAKNTVYLQMNSLKPEDTAVYYCAARGSRYVGRVRYDYWGQGTQVTVSS”, the “polyreactivity (PSR sort gate)” value is listed as “high polyreactivity”.
In the case of “QVQLVESGGGLVQAGGSLRLSCAASGRTFVVYAMGWYRQAPGKERELVAAISGRGGRTYYADSVKGRFTISRDNAKNTVYLQMNSLKPEETAVYYCATRSSVPKRFTRYGYWGHGTQVTVSS” it was “high polyreactivity”.
In the case of “QVQLVESGGGLVQAGGSLRLSCAASGRTFVVYAMGWYRQAPGKERELVAVISFTGDSTFYADSVKGRFTISRDNAKNTVYLQMNSLKPEDTAVYYCAADLDWSPHFGLPYDYWGQGTQVTVSS” it was “low polyreactivity”; in that of “QVQLVESGGGLVQAGGSLRLSCAASGRTFVVYAMGWYRQAPGKERELVAVISFTRDSTFYADSVKGRFTISRDNAKNTVYLQMNSLKPEDTAVYYCAADFRRVFSKYSYYLYFEFDYWGQGTQVTVSS”, “low polyreactivity”.
Take “QVQLVESGGGLVQAGGSLRLSCAASGRTFVVYTMGWYRQAPGKERELVAAISWRGGTTYYADSVKGRFTISRDNAKNTVYLQMNSLKPEDTAVYYCAARVVYYYRERYYWGQGTQVTVSS”: the “polyreactivity (PSR sort gate)” value is “high polyreactivity”.
In the case of “QVQLVESGGGLVQAGGSLRLSCAASGRTFVWNVMGWYRKAPGKEREFVAAISGGSTYYADSVKGRFTISRDNAKNTVYLQMNRLKPEDTAVNYCAAASKLHPRYEYWGQGTQVTVSS” it was “low polyreactivity”; in that of “QVQLVESGGGLVQAGGSLRLSCAASGRTFVYNAKGWYRQAPGKEREVVAGITGSGDSTYYADSVKGRFTISRDNAKNTVYLQMNSLKPEDTAVYYCNQLVEEDYWGQGTQVTVSS”, “low polyreactivity”.
With “QVQLVESGGGLVQAGGSLRLSCAASGRTFVYNAMGWYRQAPGKERELVAAIDGGGDRTYYADSVKGRFTISRDNAKNTVYLQMNSLKPEDTAVYYCARDPVVTYYYSYPEGDYWGQGTQVTVSS” the entry was “low polyreactivity”; with “QVQLVESGGGLVQAGGSLRLSCAASGRTFVYNAMGWYRQAPGKERELVAAIRFSGGRTYYADSVKGRFTISRDNAKNTVYLQMNSLKPEDTAVYYCAVTGELTLYTWRSFEYYYWGQGTQVTVSS”, “low polyreactivity”; with “QVQLVESGGGLVQAGGSLRLSCAASGRTFVYNAMGWYRQAPGKERELVAAISSSGGSTRYADSVKGRFTISRDNAKNTVYLQMNSLKPEDTAVYYCNRLRYSNRYDTWGQGTQVTVSS”, “high polyreactivity”.
Regarding “QVQLVESGGGLVQAGGSLRLSCAASGRTFVYTMGWYRQAPGKERELVAAIRYSGGRTYYADSVKGRFTISRDNAQNTVYLQMNSLKPEDTAVYYCAARNYATGVRYDYWGQVTQVTVSS”, the “polyreactivity (PSR sort gate)” value was “high polyreactivity”.
In the case of “QVQLVESGGGLVQAGGSLRLSCAASGRTFVYYAMAWYRQAPGKERELVAAISRTGVNTYYADSVKGRFTISRDNAKNTVYLQMNSQKPEDTAVYYCNKVYRADRSSVPYEYWGQGTQVTVSS” it was “high polyreactivity”.
With “QVQLVESGGGLVQAGGSLRLSCAASGRTFVYYAMGWYRQAPGKEREFVATITSSGGSTYYADSVKGRFTISRDNAKNTVYLQMNSLKPEDTAVYYCNADSVSSPPYYDYWGQGTQVTVSS” the entry was “high polyreactivity”; with “QVQLVESGGGLVQAGGSLRLSCAASGRTFVYYAMGWYRQAPGKERELVAAIRSGGSTNYADSVKGRFTISRDNAKNTVYLQMNSLKPEDTAVYYCNAVHYYYYKGDYWGQGTQVTVSS”, “high polyreactivity”.
With “QVQLVESGGGLVQAGGSLRLSCAASGRTFVYYAMGWYRQAPGKERELVAAISGSGGSTYYADSVKGRFTISRDNAKNTVYLQMNSLKPEDTAVYYCNVRGPGFYWNWGQSHYYGYDYWGQGTQVTVSS” the entry was “high polyreactivity”.
As for “QVQLVESGGGLVQAGGSLRLSCAASGRTFVYYAMGWYRQAPGKERELVAAITSGGNTYYADSVKGRFTISRDNAKNTDYLQMNSLKPEDTAVYYCAAKRRRSFDYWGQGTQVTVSS”, the “polyreactivity (PSR sort gate)” value is “high polyreactivity”.
With “QVQLVESGGGLVQAGGSLRLSCAASGRTFVYYAMGWYRQAPGKERELVARISSSGGRTSYADSVKGRFTISRDNAKNTVYLQMNRLKPEDTAVYYCNAGRYRAGGWGVGEGYWGQGTQVTVSS” the entry was “high polyreactivity”.
For the sequence “QVQLVESGGGLVQAGGSLRLSCAASGRTFVYYDMGWYRQAPGKERELVASISSGDSTNYADSVKGRFTISRDNAKNTVYLQMNSLKPEDTAVYDCAARGYLRGEQLYVFIRYDYWGQGTQVTVSS”, the “polyreactivity (PSR sort gate)” value is listed as “low polyreactivity”.
With “QVQLVESGGGLVQAGGSLRLSCAASGRTFVYYTMGWYRQAPGKERELVAGIRRRGGRTYYADSVKGRFTISRDNAKNTVYLQMNSLKPEDTAVYYCAAQTRYQGYQEYYYWGQGTQVTVSS” the entry was “high polyreactivity”.
With “QVQLVESGGGLVQAGGSLRLSCAASGRTFWFNHMGSYRQAPGKERELVAAITWNGGSTYYADSVKGRFTISRDNAKNTVYLQMNSLKPEATAVYYCARTSYARYRNGWTYDHWGQGTQVTVSS” the entry was “low polyreactivity”.
In the case of “QVQLVESGGGLVQAGGSLRLSCAASGRTFWGYGMGWYRQAPGKERELVATISSGGSTYYADSVKGRFTISRDNAKNTVYLQMNSLKPEDTAVYYCAARPPRTYWRYQSDYWGQGTQVTVSS” it was “high polyreactivity”; in that of “QVQLVESGGGLVQAGGSLRLSCAASGRTFWKYAMGWYRHAPGKERELVAAITDDDSTDYADSVKGRFTISRDNAKNTVYLQMNSLKPEDTAVYYCNADSSRYYRALEYWGQGTQVTVSS”, “low polyreactivity”.
Regarding “QVQLVESGGGLVQAGGSLRLSCAASGRTFWKYVMGWYRQAPGKERELVAVISRPAGSTYYADSVKGRFTISRDNAKNTVYLQMNSLKPEDTAVYYCAKRPKNKPVLGDYDQWGQGTQVTVSS”, the “polyreactivity (PSR sort gate)” value is “low polyreactivity”.
Consider “QVQLVESGGGLVQAGGSLRLSCAASGRTFWNAMGWYRQEPGKERELVATITSGGITNYADSVKGRFTISRDNAKNTVYLQMNSLKPEDTAVYYCAARPYTWRNFRPSDYWGQGTQVTVSS”, for which the “polyreactivity (PSR sort gate)” value was “high polyreactivity”.
With “QVQLVESGGGLVQAGGSLRLSCAASGRTFWNYAKGWYRQAPGNERELVAVIRFSDGSTYYADSVKGRFTISRDNAKNTVYLQMNSLKPEDTAVYYCAAKGPRRWGSGFDYWGQGTQVTVSS” the entry was “low polyreactivity”; with “QVQLVESGGGLVQAGGSLRLSCAASGRTFWNYAMGWYRQAPGKERELVAVIRFSDVSTYYADSVKGRFTISRDNAKNTVYLQMNSLKPEDTAVYYCAAKGPRRWGSGFDYWGLGTQVTVSS”, “low polyreactivity”.
In the case of “QVQLVESGGGLVQAGGSLRLSCAASGRTFWPYAMGWYRQAPGKERELVAAISTSGGSTYYADSVKGRFTISRDNAKNTVYLQMNSLKPEDTAVYYCAAYSTLTPAYEYWGQGTQVTVSS”, the “polyreactivity (PSR sort gate)” value is given as “high polyreactivity”.
“QVQLVESGGGLVQAGGSLRLSCAASGRTFWRNAMGWYRQAPGKERELVAAINSGGRTYYADSVKGRFTISRDNAKNTVYLQMNSLKPEDTAVYYCAVYVHRFLDGRVRSYRGDYWGQGTQVTVSW”: the “polyreactivity (PSR sort gate)” value is “high polyreactivity”.
In the case of “QVQLVESGGGLVQAGGSLRLSCAASGRTFWRNAMGWYRQAPGKERELVAAISSSGDRTYYADSVKGRFTISRDNAKNTVYLQMNSLKPEDTAVYYCAARTFWGAYDYWGQGTQVTVSS” it was “high polyreactivity”; in that of “QVQLVESGGGLVQAGGSLRLSCAASGRTFWSNAMGWYRPAPGKERELVAAITWSGGSTSYADSVKGRFTISRDNAKNTVYLQMNSLKPEDTAVYYCAAGKGVELAKLDYWGQGTQVTVSS”, “low polyreactivity”.
Take “QVQLVESGGGLVQAGGSLRLSCAASGRTFWSNAMGWYRQAPGKERELVAAISTGAGSTYYADSVKGRFTISRDNAKNTVYLQMNSLKPEDTAVYYCAAVYNGALYNYYYWGEGTQVTVSS”: the “polyreactivity (PSR sort gate)” value is given as “high polyreactivity”.
“QVQLVESGGGLVQAGGSLRLSCAASGRTFWSYAMGWYRQAPGKEREFVAAISRRGGITYYADSVKGRFTLSRDNAKNTVYLQMNSLKPEDTAVYYCAKGAQSYYGGQVKYDYWGQGTQVTVSS”: the “polyreactivity (PSR sort gate)” value is recorded as “high polyreactivity”.
For “QVQLVESGGGLVQAGGSLRLSCAASGRTFWSYAMGWYRQAPGKERELVAAINSSGDSTYYADSVKGRFTISRDNAKNTVYLQMNSLKPEDTAVYYCAADGGLLAGSDATVRMDYWGQGTQVTVSS”, the “polyreactivity (PSR sort gate)” value is listed as “low polyreactivity”.
On to “QVQLVESGGGLVQAGGSLRLSCAASGRTFWSYAMGWYRQAPGKVRELVAAITSSGGTTNYADSVKGRFTISRDNAKNTVYLQMNSLKPEDTAVYYCAADNGGAGYYYGYVWYDYWGQGTQVTVSS”, for which the “polyreactivity (PSR sort gate)” value is “low polyreactivity”.
Take “QVQLVESGGGLVQAGGSLRLSCAASGRTFWTYTLGWYRQAPGKEREFVAAITFGDGSTSYADSVKGRFTISRDNAKNTVYLQMNSLKPEDTAVYYCAAADQVGQEDDYWGQGTQVTVSS”: the “polyreactivity (PSR sort gate)” value is “low polyreactivity”.
Turning to “QVQLVESGGGLVQAGGSLRLSCAASGRTFWTYTMGWYRQAPGKEREFVAAITFGDGSTSYADSVKGRFTISRDNAKNTVYFQMNSLKPEDTAVYYCAKRWRRRFVDVWSLYDYWGQGTQVTVSS”, the “polyreactivity (PSR sort gate)” value was “low polyreactivity”.

(Values after the nanobody polyreactivity screen of Harvey et al. (2022).)
